Reference: PMC12199414, “A Self‐Assembling LYTAC Mediates CTGF Degradation and Remodels Inflammatory Tumor Microenvironment for Triple‐Negative Breast Cancer Therapy” (Advanced Science, 2025)

Legend:
red blood cells = test: Hemolysis assay; format: cell-based, mice; details: mouse erythrocytes, 0-30 × 10^−6 M, 1 h, 37 °C, absorbance 570 nm
Description: The hemolytic activities of CL8, CL8‐M6P3, and NanoCLY were determined by monitoring hemoglobin release from red blood cells. Fresh erythrocytes were obtained from the whole blood of mice by centrifugation (1000 × g for 30 min at 4 °C), and washed three times with cold 0.9% NaCl. The erythrocytes were dispensed into 96‐well plates, incubated with CL8, CL8‐M6P3 and NanoCLY at specified concentrations (0, 0.3, 1, 3, 10, and 30 × 10^−6 M) for 1 h at 37 °C, centrifuged at 1000 × g for 10 min, the supernatant samples were collected, and the absorbance at 570 nm was measured by microplate reader Cytation 5 (Biotek, USA). The negative control group was defined as the absorbance obtained in 1× PBS (A PBS), and 100% hemolysis in 0.1%Triton X‐100 (v/v) (A Triton). The hemolysis percentage was calculated as: (A peptide − A PBS)/(ATriton − A PBS) × 100%.

[1] = Critical micelle concentration with pyrene; format: physicochemical; details: pyrene fluorescence I390/I380, aqueous solution, sonicated 2 h
Description: The CMC value of NanoCLY in an aqueous solution was estimated by pyrene. Pyrene with the final concentration of 6.08 mg L^−1 was added 100 µL to Eppendorf tubes and dried overnight, and was added with 500 µL of various concentrations of NanoCLY (0.001, 0.006, 0.0125, 0.025, 0.05, 0.2, 0.6 mg mL^−1), and sonicated for 2 h. After sonicating, the supernatant samples were collected, and recorded the intensity ratios of I390/I380 by microplate reader Cytation 5 (Biotek, USA). The crossing point of the two linear fittings of the logarithm of NanoCLY concentrations was set as the CMC value.

[2] = Stability of nanoparticles in PBS; format: physicochemical; details: PBS pH 7.4, 37 °C, n = 3
[3] = Dynamic light scattering: size, PDI, zeta potential; format: physicochemical; details: DLS, 500 µg/mL in PBS
Description: A solution of 1‐Dodecanethiol (0.5 mmol) and 2,2′‐Dithiodipyridine (0.6 mmol) in 10 mL MeOH was vigorously stirred for 3 h at room temperature. The reaction mixture was diluted with petroleum ether/ethyl acetate (50:1, v/v). The purified products 2‐(dodecyldisulfaneyl)pyridine were characterized by MS. CL8‐M6P3 (1.4 mg, 0.56 µmol, 1 eq.) and 2‐(dodecyldisulfaneyl)pyridine (261.7 µg, 0.84 µmol, 1.5 eq.) dissolved in 1 mL DMF/ddH2O (1/1, v:v) was vigorously stirred for 16 h at room temperature. The products were diluted with ddH2O. The aqueous layer was extracted with ethyl acetate three times, and filtered and concentrated under reduced pressure. For particle size measurement, NanoCLY was prepared at a final concentration of 500 µg/mL in PBS, sonicated for 30 min, and used for particle size analyzer (Malvern Panalytical, UK), transmission electron microscope (TEM) analysis (JEOL, Japan) and Nanosight NS300 (Malvern Panalytical, UK). 2‐(dodecyldisulfaneyl)pyridine, ESI‐MS calcd for C17H29NS2 [M + H]^+ 312.55, found 312.20. NanoCLY, ESI‐MS calcd for C107H176N27O47P3S2 [M + H]^+ 2750.77, found 1375.50.

CTGF = molecular target: T1, CTGF (Homo sapiens, UniProt P29279); test: ELISA of extracellular CTGF in culture media of TNBC cells; format: cell-based; details: in vitro, BT549 and MDA-MB-231 culture media, 12 h
T1 construct: endogenous in cells; host or cells: BT549 and MDA-MB-231 (human TNBC cell lines)
T1 sequence (P29279 27-349): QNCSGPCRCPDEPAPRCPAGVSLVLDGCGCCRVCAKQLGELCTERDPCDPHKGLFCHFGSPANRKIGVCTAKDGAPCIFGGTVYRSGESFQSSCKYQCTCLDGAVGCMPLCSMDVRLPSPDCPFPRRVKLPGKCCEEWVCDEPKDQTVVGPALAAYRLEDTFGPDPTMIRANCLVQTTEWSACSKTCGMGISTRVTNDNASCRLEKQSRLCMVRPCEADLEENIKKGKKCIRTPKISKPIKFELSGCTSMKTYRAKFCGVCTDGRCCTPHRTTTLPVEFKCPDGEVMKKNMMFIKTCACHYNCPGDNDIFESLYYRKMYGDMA
Description: BT549 and MDA‐MB‐231 cells were treated with various concentrations of CL8‐M6P3 or NanoCLY for 12 h. Extracellular CTGF protein level in conditioned media was quantified by a human CTGF ELISA kit following the manufacturer's instructions (ab261851, Abcam and CSB‐E07875h, Cusabio). Extracellular CCN1, CCN3, and CCN4 protein levels were quantified using respective ELISA kits (HY‐P7842, HY‐P701327, HY‐P78051, MCE) following the manufacturer's instructions (CSB‐EL015956HU, CSB‐EL026119HU, CSB‐E13884h, Cusabio). Additionally, BSP and β‐CTx levels in serum were quantified by ELISA kit following the manufacturer's instructions (BPE10823, BPE10438, lengton).

Plasma stability assay = format: in vitro ADME; details: 50% mouse plasma (DLS) and 20% mouse plasma or 1.5 × 10^−6 M GSH (HPLC), different time periods, n = 3
Description: (§1) For the DLS assay, NanoCLY solution was mixed with 50% mouse plasma and incubated for different time periods. After incubation, the aliquots were analyzed using DLS. For the NanoCLY stability assay under simulated plasma GSH conditions, NanoCLY solution was mixed with 1.5 × 10^−6 M GSH or 20% mouse plasma, and was incubated for different time periods. After incubation, the aliquots were diluted and analyzed by HPLC.

[4] = GSH response of NanoCLY (HPLC); format: physicochemical
Description: For in vitro experiments, NanoCLY (0.1 mg mL^−1) was incubated with varying concentrations of GSH (0, 2, 25 × 10^−5 M) in PBS at 37 °C for 6 h. After incubation, the aliquots were analyzed by NanoSight (Malvern Panalytical, UK), HPLC (Agilent, USA), and TEM (JEOL, Japan). For in vivo experiments, when tumor volume reached about 200 mm^3, mice were intratumorally injected with 50 µL NanoCLY (2.5 mg kg^−1), or NanoCLY (2.5 mg kg^−1) with a 20‐min preinjection of H2O2 (2.5 × 10^−2 M). Tumors were collected after 4 h for HPLC analysis.
as §1

C12-CPSAAHYL-PEG3-[Pra(M6P)βAla]3-NH2 [NanoCLY, CL8-M6P3 joined to a lauryl chain via disulfide; self-assembling GSH-responsive LYTAC nanoparticle]
hemolysis safety (red blood cells): good hemolysis safety | critical micelle concentration (CMC) [1]: 55.1 µg/mL | stability in PBS (size and PDI) [2]: at least 72 h | polymer dispersity index (PDI) [3]: 0.301 ± 0.059 | hydrodynamic diameter (size) ([3]; sonicated 30 min): 118.0 ± 9.38 nm | extracellular CTGF degraded (CTGF): ≈ 50% | size and structural integrity under plasma conditions (Plasma stability assay): retained its size and structural integrity | stability under plasma-mimicking GSH ([4]; GSH 1.5 × 10⁻⁶ M, analytical HPLC 214 nm): remained stable | disulfide linker cleavage at TME-relevant GSH ([4]; GSH 2 × 10⁻⁵ and 2.5 × 10⁻⁴ M in PBS, 37 °C, 6 h, NanoCLY 0.1 mg mL^−1, analytical HPLC 214 nm): selective cleavage of the disulfide linker
